Measured values as given in patent publication US20030114404, “Vascular endothelial growth factor (VEGF) nucleic acid ligand complexes” (Gilead Sciences, Inc., published 2003).
Numbering of substitutions follows the chain as printed.

B1: VP30.7 (ssRNA)
RNA: GGGAGGACGAUGCGGAAGAAUUGGUCAUCGUCGUCUCCGCCUCCCCAGACGACUCGCCCGA
modifications: 2'-F pyrimidines
B2: VP30.12 (ssRNA)
RNA: GGGAGGACGAUGCGGAAUACGGAAGAAUUGGAUACAUAUGCUCGUCAGACGACUCGCCCGA
modifications: 2'-F pyrimidines
B3: VP30.41 (ssRNA)
RNA: GGGAGGACGAUGCGGUAGGAAGUAUUGUAAGCGCCUCGUUUUCGCCAGACGACUCGCCCGA
modifications: 2'-F pyrimidines
B4: VP40.41 (ssRNA)
RNA: GGGAGGACGAUGCGGCAAAUUCAAGGUCGAGUUAUGCGUAGAUGUGGCUCCUGUGCAGACGACUCGCCCGA
modifications: 2'-F pyrimidines
B5: VP40.44 (ssRNA)
RNA: GGGAGGACGAUGCGGAUCUGUUGAACUGGGUUUUGCCGACGGUUACGCUUUUGCUCAGACGACUCGCCCGA
modifications: 2'-F pyrimidines
B6: VP40.47 (ssRNA)
RNA: GGGAGGACGAUGCGGCAGUUAAUUAAUUUGAGUUGUGAUGUGUGUCGUUAUGGGCCAGACGACUCGCCCGA
modifications: 2'-F pyrimidines
B7: VT30.8 (ssRNA)
RNA: GGGAGGACGAUGCGGUUGAUCGAUUUUCCUGGCGUCCUUAUGGGUCAGACGACUCGCCCGA
modifications: 2'-F pyrimidines
B8: VT30.12 (ssRNA)
RNA: GGGAGGACGAUGCGGUCUUUGGGUUUUUGCCAACGGUUUUCGCUCAGACGACUCGCCCGA
modifications: 2'-F pyrimidines
B9: VT30.18 (ssRNA)
RNA: GGGAGGACGAUGCGGUUCAGAAUUGGCUGCGAUCCUUUUCCCCCUCAGACGACUCGCCCGA
modifications: 2'-F pyrimidines
B10: VT30.27 (ssRNA)
RNA: GGGAGGACGAUGCGGGAUCACGGCUUUGCACGAUCUUCUUCUCCUCAGACGACUCGCCCGA
modifications: 2'-F pyrimidines
B11: VT30.23 (ssRNA)
RNA: GGGAGGACGAUGCGGGAUCACGAUACUUGACGAUUUUCCUCUCCUCAGACGACUCGCCCGA
modifications: 2'-F pyrimidines
B12: VT30.38 (ssRNA)
RNA: GGGAGGACGAUGCGGAGCGGUAUUCUGUUCGGUCGUUUUCCUCCUCAGACGACUCGCCCGA
modifications: 2'-F pyrimidines
B13: VP30.51 (ssRNA)
RNA: GGGAGGACGAUGCGGAGUUUUGGAAGAAUUGGAUGUUCCGAUCGUCAGACGACUCGCCCGA
modifications: 2'-F pyrimidines
B14: VT30.40 (ssRNA)
RNA: GGGAGGACGAUGCGGAUUUGGAUGCAUGUCAAGGCGUUUUGCCCUCAGACGACUCGCCCGA
modifications: 2'-F pyrimidines
B15: VP30.54 (ssRNA)
RNA: GGGAGGACGAUGCGGAAGAAACGGAAGAAUUGGAGACACGCUCGUCAGACGACUCGCCCGA
modifications: 2'-F pyrimidines
B16: VP40.4 (ssRNA)
RNA: GGGAGGACGAUGCGGGAAGAAUUGAUGUUGUAUUGUCCUUCCGAUUUCCUGCCGUCAGACGACUCGCCCGA
modifications: 2'-F pyrimidines
B17: VP40.43 (ssRNA)
RNA: GGGAGGACGAUGCGGACAGAAGAAUUGGGCUUCGCAUUAUCCUCUGUCAGCCGCCAGACGACUCGCCCGA
modifications: 2'-F pyrimidines
B18: VP40.53 (ssRNA)
RNA: GGGAGGACGAUGCGGUGAGAGAAACGGAAGAAUUGGAUACGAUACUCAUCGCGCUCAGACGACUCGCCCGA
modifications: 2'-F pyrimidines
B19: VT30.4 (ssRNA)
RNA: GGGAGGACGAUGCGGCUUAAGUUUUGGAAGAAUUGAAUACUGGGUCAGACGACUCGCCCGA
modifications: 2'-F pyrimidines
B20: VT30.7 (ssRNA)
RNA: GGGAGGACGAUGCGGUAACCAGUGGAAGAAUUGGCUGCUAUCCUCAGACGACUCGCCCGA
modifications: 2'-F pyrimidines
B21: VT30.10 (ssRNA)
RNA: GGGAGGACGAUGCGGAACGGAAGAAUUGGAUACGUAGCAUGCGUCAGACGACUCGCCCGA
modifications: 2'-F pyrimidines
B22: VT30.13 (ssRNA)
RNA: GGGAGGACGAUGCGGCAGGAUUUUGGAAGAAUUGGAUAUUGGCCGCAGACGACUCGCCCGA
modifications: 2'-F pyrimidines
B23: VP30.13 (ssRNA)
RNA: GGGAGGACGAUGCGGGAUAACAGAAGAAUUGGUGAACAACGUGGUCAGACGACUCGCCCGA
modifications: 2'-F pyrimidines
B24: VT30.20 (ssRNA)
RNA: GGGAGGACGAUGCGGAAACGGAAGAAUUGGAUACCGCUACGUGUUCAGACGACUCGCCCGA
modifications: 2'-F pyrimidines
B25: VT30.52 (ssRNA)
RNA: GGGAGGACGAUGCGGAAGAAUUGAGCAUUCCUUCUCCUUGUGCCUCAGACGACUCGCCCGA
modifications: 2'-F pyrimidines
B26: VT30.53 (ssRNA)
RNA: B15 RNA with A17G, G18C, A19U, G35A, C39A, G40C, U42G
modifications: 2'-F pyrimidines
B27: VP30.31 (ssRNA)
RNA: GGGAGGACGAUGCGGUAACCGAUUGAACUUCUUGGACGCUACCGUCAGACGACUCGCCCGA
modifications: 2'-F pyrimidines
B28: VP30.43 (ssRNA)
RNA: GGGAGGACGAUGCGGUAACCGAAUUGAAGUUAUUGGACGCUACCUCAGACGACUCGCCCGA
modifications: 2'-F pyrimidines
B29: VP40.9 (ssRNA)
RNA: GGGAGGACGAUGCGGGAGCAGAACCGAUAGAAGAAUUGGACGCUCAGCUCCGGGUCAGACGACUCGCCCGA
modifications: 2'-F pyrimidines
B30: VP40.14 (ssRNA)
RNA: GGGAGGACGAUGCGGGUACCAGAAUGAGCAACCGAAUGAAGAACUGGACGCUGCUCAGACGACUCGCCCGA
modifications: 2'-F pyrimidines
B31: VP40.17 (ssRNA)
RNA: GGGAGGACGAUGCGGUGAACCGAUGGAAUCGCUUGGACGCUCAUCGCACGUUGCUCAGACGACUCGCCCGA
modifications: 2'-F pyrimidines
B32: VP30.16 (ssRNA)
RNA: GGGAGGACGAUGCGGAUGAUCGCGUAGGAAGUAUUGGAAGGCCCUCAGACGACUCGCCCGA
modifications: 2'-F pyrimidines
B33: VT30.9 (ssRNA)
RNA: GGGAGGACGAUGCGGUCAACCGGUUGAAUAUUUGGUCGCUGACCUCAGACGACUCGCCCGA
modifications: 2'-F pyrimidines
B34: VT30.1 (ssRNA)
RNA: GGGAGGACGAUGCGGAACUAGUGAAUGCUUAUACGACCGUGUUGUCAGACGACUCGCCCGA
modifications: 2'-F pyrimidines
B35: VT30.2 (ssRNA)
RNA: GGGAGGACGAUGCGGAUCAGUGAAUGCUUAUAGACCGCCUCCGUCAGACGACUCGCCCGA
modifications: 2'-F pyrimidines
B36: VT30.11 (ssRNA)
RNA: GGGAGGACGAUGCGGAAUCAGUGAAUGCUUAUAGCUCCCGCGUCCUCAGACGACUCGCCCGA
modifications: 2'-F pyrimidines
B37: VT30.15 (ssRNA)
RNA: GGGAGGACGAUGCGGAACCAGUGAAUGCUUAUAAGACUGCUCGUCAGACGACUCGCCCGA
modifications: 2'-F pyrimidines
B38: VT30.21 (ssRNA)
RNA: GGGAGGACGAUGCGGAUCAGUGAAUGCUUAUAGACCGUAUUGCGUCAGACGACUCGCCCGA
modifications: 2'-F pyrimidines
B39: VT30.28 (ssRNA)
RNA: GGGAGGACGAUGCGGAGAAUCAGUGAAUGCUUAUAAACCUCGUGUCAGACGACUCGCCCGA
modifications: 2'-F pyrimidines
B40: VT30.29 (ssRNA)
RNA: B34 RNA with C18U, U19C, C34G, G35C, A36U, U40C, U43G
modifications: 2'-F pyrimidines
B41: VT30.41 (ssRNA)
RNA: GGGAGGACGAUGCGGCAGGGUGAAUGCCAAUGUACUUUUCGCGUCAGACGACUCGCCCGA
modifications: 2'-F pyrimidines
B42: VP30.19 (ssRNA)
RNA: GGGAGGACGAUGCGGCACUUUAGAAGAAUUGAAUUUCCCGCUGGUCAGACGACUCGCCCGA
modifications: 2'-F pyrimidines
B43: VT30.44 (ssRNA)
RNA: GGGAGGACGAUGCGGAAUCAGUGAAUGCUUAUACAUCCGCUCGGUCAGACGACUCGCCCGA
modifications: 2'-F pyrimidines
B44: VT30.54 (ssRNA)
RNA: GGGAGGACGAUGCGGGACUAGGUGAAUGCCAAUAUUCUUCUCCGUCAGACGACUCGCCCGA
modifications: 2'-F pyrimidines
B45: VP30.25 (ssRNA)
RNA: B22 RNA with A17G, G45U
modifications: 2'-F pyrimidines
B46: VP30.1 (ssRNA)
RNA: B8 RNA with G22A
modifications: 2'-F pyrimidines

target: VEGF165 (Homo sapiens, UniProt P15692-4 P15692-4:27-191); test: filter; 37 C; conditions: tags: carrier-free, Sf 21 insect cell expressed, R & D Systems; chain copies: 2 (inferred)
Protocol: Nucleic Acid Ligands radiolabeled during transcription by incorporation of α-[³²P]-labeled NTPs, or after synthesis using γ-[³²P]-ATP and T4 polynucleotide kinase, were incubated in low concentration (between 20 and 70 pM) with varying concentrations of VEGF or other growth factors at 37° C. for 15 minutes. Incubations were in TBS, PBS, or HEPES-buffered saline (HBS), pH 7.4, with or without the addition of supplemental divalent cations. Samples were passed through prewashed 0.45 μ Type HA filters (Millipore) followed by a 5-10 ml wash with binding buffer. Filters were immersed in scintillant and counted to quantitate the amount of protein-bound RNA retained by each filter. The equilibrium dissociation constant (KD) of Nucleic Acid Ligand binding to a specific protein was calculated from the data points as described in Green et al. (1996) Biochem. 35: 14413-14424.

Sequence of VEGF165 (P15692 other isoform, or with tags, fused parts or gaps): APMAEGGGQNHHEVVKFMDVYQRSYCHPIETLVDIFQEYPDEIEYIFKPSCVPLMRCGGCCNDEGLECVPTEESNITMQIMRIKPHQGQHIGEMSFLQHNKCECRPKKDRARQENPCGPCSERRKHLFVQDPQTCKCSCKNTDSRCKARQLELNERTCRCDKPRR

Row | Binder | Kd [pM]
1 | B1 | 3000
2 | B2 | 7
3 | B3 | 7
4 | B4 | 11000
5 | B5 | 43
6 | B6 | 96
7 | B7 | 34
8 | B8 | 9
9 | B9 | 4
10 | B10 | 120
11 | B11 | 19
12 | B12 | 5
13 | B13 | 90
14 | B14 | 30
15 | B15 | 10
16 | B16 | 200
17 | B17 | 30
18 | B18 | 8
19 | B19 | 20
20 | B20 | 10
21 | B21 | 2
22 | B22 | 10
23 | B23 | 10

Row | Binder | Kd [pM]
24 | B24 | 4
25 | B25 | 9000
26 | B26 | 10
27 | B27 | 6
28 | B28 | 5
29 | B29 | 30
30 | B30 | 8
31 | B31 | 10
32 | B32 | 6
33 | B33 | 30
34 | B34 | 10
35 | B35 | 2
36 | B36 | 4
37 | B37 | 3
38 | B38 | 6
39 | B39 | 60
40 | B40 | 10
41 | B41 | 40
42 | B42 | 9
43 | B43 | 10
44 | B44 | 10
45 | B45 | 20
46 | B46 | 32000
